Here are results for three molecules from publication PMC12067093 (2025).

The target in the assay is BRD4 BD2 (Homo sapiens, UniProt O60885). Description: SPR.

B1: TRIM25 PRYSPRY (protein)
chain: KVLETFLAKSRPELLEYYIKVILDYNTAHNKVALSECYTVASVAEMPQNYRPHPQRFTYCSQVLGLHCYKKGIHYWEVELQKNNFCGVGICYGSMNRQGPESRLGRNSASWCVEWFNTKISAWHNNVEKTLPSTKATRVGVLLNCDHGFVIFFAVADKVHLMYKFRVDFTEALYPAFWVFSAGATLSICSPK
modifications: TRIM25 covalently pre-labelled with heterobifunctional compound HB2
Regarding B1, the affinity, expressed as Kd, was 20 nM.

B2: TRIM25 PRYSPRY (protein)
chain: KVLETFLAKSRPELLEYYIKVILDYNTAHNKVALSECYTVASVAEMPQNYRPHPQRFTYCSQVLGLHCYKKGIHYWEVELQKNNFCGVGICYGSMNRQGPESRLGRNSASWCVEWFNTKISAWHNNVEKTLPSTKATRVGVLLNCDHGFVIFFAVADKVHLMYKFRVDFTEALYPAFWVFSAGATLSICSPK
modifications: TRIM25 covalently pre-labelled with heterobifunctional compound HB1
The molecule B2 registered a Kd of 15 nM.

B3: TRIM25 PRYSPRY (protein)
chain: KVLETFLAKSRPELLEYYIKVILDYNTAHNKVALSECYTVASVAEMPQNYRPHPQRFTYCSQVLGLHCYKKGIHYWEVELQKNNFCGVGICYGSMNRQGPESRLGRNSASWCVEWFNTKISAWHNNVEKTLPSTKATRVGVLLNCDHGFVIFFAVADKVHLMYKFRVDFTEALYPAFWVFSAGATLSICSPK
modifications: TRIM25 covalently pre-labelled with heterobifunctional compound HB3
Take B3: the affinity, expressed as Kd, was 22.5 nM.
